# Experimental data reported in patent US20230348603A1 (VERSEAU THERAPEUTICS, published 2023).
# T1: Human VSIG4-L-His (human, UniProt Q9Y279 20-283)
# T1 construct: long isoform ECD with His tag; also called hVSIG4-L
# T1 sequence: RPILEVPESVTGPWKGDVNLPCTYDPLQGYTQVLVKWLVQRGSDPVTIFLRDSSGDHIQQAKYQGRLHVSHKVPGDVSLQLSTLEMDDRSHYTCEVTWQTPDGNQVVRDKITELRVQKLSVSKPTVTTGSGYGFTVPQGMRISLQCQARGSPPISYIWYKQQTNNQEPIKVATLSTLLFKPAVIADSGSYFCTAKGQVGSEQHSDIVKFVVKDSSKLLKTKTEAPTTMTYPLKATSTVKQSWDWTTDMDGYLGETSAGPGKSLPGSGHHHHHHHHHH
# T2: Cynomolgus Monkey VSIG4-L-His (cynomolgus monkey)
# T2 construct: ECD with His tag; also called cyVSIG4-L; cyno VSIG4-L-His
# T2 chain: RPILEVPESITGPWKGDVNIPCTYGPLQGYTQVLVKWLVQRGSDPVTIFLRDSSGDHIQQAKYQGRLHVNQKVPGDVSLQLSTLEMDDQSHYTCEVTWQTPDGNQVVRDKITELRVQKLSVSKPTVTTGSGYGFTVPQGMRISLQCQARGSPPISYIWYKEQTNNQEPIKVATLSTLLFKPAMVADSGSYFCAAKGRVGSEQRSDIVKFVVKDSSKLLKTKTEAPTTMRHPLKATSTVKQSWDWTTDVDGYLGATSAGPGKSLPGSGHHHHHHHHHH
# T3: Mouse VSIG4-His (mouse)
# T3 construct: ECD with His tag; also called mVSIG4
# T3 chain: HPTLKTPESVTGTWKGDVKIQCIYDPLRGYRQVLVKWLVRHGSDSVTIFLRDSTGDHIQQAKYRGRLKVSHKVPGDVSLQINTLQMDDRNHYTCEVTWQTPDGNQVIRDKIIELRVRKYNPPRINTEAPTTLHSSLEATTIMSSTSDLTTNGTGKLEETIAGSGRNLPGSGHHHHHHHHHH
# T4: Human VSIG4-L-CHO (human VSIG4 long isoform on CHO-K1 cells) (human, UniProt Q9Y279 20-399)
# T4 construct: also called hVSIG4-L (flow cytometry)
# T4 sequence: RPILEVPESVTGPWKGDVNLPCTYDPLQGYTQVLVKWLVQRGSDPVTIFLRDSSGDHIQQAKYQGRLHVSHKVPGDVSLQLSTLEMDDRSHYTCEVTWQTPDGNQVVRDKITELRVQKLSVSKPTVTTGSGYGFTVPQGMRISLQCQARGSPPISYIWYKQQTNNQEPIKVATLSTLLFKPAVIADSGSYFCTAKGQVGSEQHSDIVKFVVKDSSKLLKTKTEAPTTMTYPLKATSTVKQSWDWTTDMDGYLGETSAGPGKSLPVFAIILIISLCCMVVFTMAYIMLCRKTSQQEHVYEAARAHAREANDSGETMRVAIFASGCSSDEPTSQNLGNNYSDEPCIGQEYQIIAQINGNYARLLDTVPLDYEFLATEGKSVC
# T5: Human VSIG4-S-His (human, UniProt Q9Y279 20-283)
# T5 construct: short isoform ECD with His tag; also called hVSIG4-S; VISG4-S-His
# T5 sequence: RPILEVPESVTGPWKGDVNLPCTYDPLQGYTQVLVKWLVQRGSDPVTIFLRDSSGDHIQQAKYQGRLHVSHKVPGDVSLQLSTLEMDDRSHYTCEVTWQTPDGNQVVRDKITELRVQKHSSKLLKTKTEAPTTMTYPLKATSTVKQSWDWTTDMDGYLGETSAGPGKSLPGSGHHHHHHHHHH
# B1: 16G02 mouse/human chimeric IgG4 (S228P) kappa (antibody, V domains shown)
# VH: QVQLQQSGAELMKPGASVKISCKATGYTFSSYWIEWVKQRPGHGLEWIGEILPGSSTTNYNEKFKGKATFTADTSSNTAYMQLSSLTSEDSAVYYCAREDHFITTARYAMDYWGQGTSVTVSS
# VL: DIVLTQSPASLAMSVGQKVTMSCKSSQSLLNSSNQKNYLAWYQQKPGQSPKLLLYFASTRESGVPDRFIGSGSGTDFTLTISSVQAEDLADYFCQQHYSNPLTFGAGTKLELKR
# B2: 15A06 mouse/human chimeric IgG4 (S228P) kappa (antibody, V domains shown)
# VH: QVQMKQSGPSLVRPSQTLSLTCSVTGDSITSGYWNWIRKFPGDKFEYLGYISYSGFTYYNPSLKSRVSITRDTSKNQYYLQLHSVTTEDTATYYCASSKYGSSLGFPYWGQGTLVTVSA
# VL: DVVMTQTPLSLPVSLGDQASISCRSSQSLVHSNGNTYLHWYLQKPGQSPKLLIYKVSNRFSGVPDRFSGSGSGTDFTLKISRVEAEDLGVYFCSQSTHVPFTFGSGTKLEIKR
# What was measured:
# [1] = target: T1, Human VSIG4-L-His; experiment: SPR (FJB)
# [2] = target: T2, Cynomolgus Monkey VSIG4-L-His; experiment: SPR (FJB)
# [3] = target: T3, Mouse VSIG4-His; experiment: ELISA (FJB), muVSIG4-His
# [4] = target: T4, Human VSIG4-L-CHO (human VSIG4 long …); experiment: flow cytometry (FJB), huVSIG4-L CHO-K1 cells
# [5] = target: T6, Human VSIG4-L-Fc (human); experiment: BLI cross-blocking on hVSIG4-L-Fc, competitor 12A12 first
# T6 construct: also called hVSIG4-L-Fc; hVSIG4-L
# [6] = target: T6, Human VSIG4-L-Fc; experiment: BLI cross-blocking on hVSIG4-L-Fc, competitor 14C05 first
# [7] = target: T6, Human VSIG4-L-Fc; experiment: BLI cross-blocking on hVSIG4-L-Fc, competitor 16G02 first
# [8] = target: T6, Human VSIG4-L-Fc; experiment: ligand competition ELISA (FJB), blocked ligand C3b
# Target sequence in this assay (chain, as listed by the source limits assumed): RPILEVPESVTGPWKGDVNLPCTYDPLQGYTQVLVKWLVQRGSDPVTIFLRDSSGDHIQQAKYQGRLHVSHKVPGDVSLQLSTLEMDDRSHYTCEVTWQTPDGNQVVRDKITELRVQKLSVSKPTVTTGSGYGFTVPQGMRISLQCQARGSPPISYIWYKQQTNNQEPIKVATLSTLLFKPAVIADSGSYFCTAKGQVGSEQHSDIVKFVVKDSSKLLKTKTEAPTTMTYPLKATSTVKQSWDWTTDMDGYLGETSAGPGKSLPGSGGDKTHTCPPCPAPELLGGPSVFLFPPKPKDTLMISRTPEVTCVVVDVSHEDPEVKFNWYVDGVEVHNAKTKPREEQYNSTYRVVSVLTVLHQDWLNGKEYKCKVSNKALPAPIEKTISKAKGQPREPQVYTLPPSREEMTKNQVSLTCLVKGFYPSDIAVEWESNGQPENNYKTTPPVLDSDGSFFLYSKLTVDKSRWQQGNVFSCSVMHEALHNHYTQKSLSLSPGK
# [9] = target: T6, Human VSIG4-L-Fc; experiment: ligand competition ELISA (FJB), blocked ligand iC3b
# [10] = target: T4, Human VSIG4-L-CHO (human VSIG4 long …); experiment: flow cytometry (FJB), 200 nM mAb, huVSIG4-L CHO-K1 cells
# [11] = target: T6, Human VSIG4-L-Fc; experiment: ligand competition ELISA (FJB), blocked ligand C3b, 200 nM mAb
# [12] = target: T6, Human VSIG4-L-Fc; experiment: ligand competition ELISA (FJB), blocked ligand iC3b, 200 nM mAb
# [13] = target: T4, Human VSIG4-L-CHO (human VSIG4 long …); experiment: flow cytometry (FJB), 200 nM mAb, huVSIG4-L CHO-K1 over parental CHO-K1
# [14] = target: T5, Human VSIG4-S-His; experiment: BLI (Octet), IgG on AHC sensor
# Method: (§1) The binding affinity of chimeric antibodies was determined by biolayer interferometry (BLI), using a ForteBio Octet® Red384 system. […] Biosensors were rehydrated prior to the assay in kinetics buffer for 10 minutes and then equilibrated in kinetics buffer for 60 seconds. Antibody was then immobilized for 300 seconds followed by a 120 second baseline wash in fresh kinetics buffer, 300 second analyte association, and 300 second dissociation in the same buffer wells as the baseline wash step. All assay steps occurred at 30° C. with an acquisition rate of 5.0 Hz
# [15] = target: T6, Human VSIG4-L-Fc; experiment: ELISA, IgG 50 nM on coated antigen;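 also: Mouse-human chimeric IgG4 antibodies incubated 1 h on plate-coated VSIG4 proteins, bound IgG detected with HRP-labelled anti-human IgG, irrelevant antibody and protein as specificity controls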
# Method: (§2) The binding characteristics of selected antibodies identified in the phage display selections and reformatted as mouse-human chimeric IgG4 antibodies was assessed by ELISA for their ability to bind plate-bound human VSIG4-L, human VSIG4-S, cynomolgus monkey VSIG4, and mouse VSIG4 (Table 7). Antibodies were also assessed by ELISA for specificity to human VSIG4 compared to related VSIG4 B7 family members, including human B7-H1, B7-H2, B7-H3, B7-H4, B7-DC, B7-1, and B7-2 (Table 8).
# (§3) Coated microplates were blocked with dried skimmed milk at 4% in PBS. Coated proteins were then incubated with each purified antibody at a concentration of 50 nM for 1 h to allow the binding to the proteins. Binding detection was measured using a goat anti-huIgG monoclonal detection antibody, HRP conjugated (Jackson Immune Research, West Gove, PA). As a control for specificity, an irrelevant antibody and protein were used. OD at 450 nm was determined using a standard absorbance microplate reader.
# [16] = target: T7, Human VSIG4-S-Fc (human); experiment: ELISA, IgG 50 nM on coated antigen;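 also: Mouse-human chimeric IgG4 antibodies incubated 1 h on plate-coated VSIG4 proteins, bound IgG detected with HRP-labelled anti-human IgG, irrelevant antibody and protein as specificity controls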
# T7 construct: short isoform ECD fused to human Fc1; also called hVSIG4-S
# Method: as §2, §3
# [17] = target: T3, Mouse VSIG4-His; experiment: ELISA, IgG 50 nM on coated antigen;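 also: Mouse-human chimeric IgG4 antibodies incubated 1 h on plate-coated VSIG4 proteins, bound IgG detected with HRP-labelled anti-human IgG, irrelevant antibody and protein as specificity controls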
# Method: as §2, §3
# [18] = target: T1, Human VSIG4-L-His; experiment: BLI (Octet), IgG on AHC sensor, antigen 100 nM
# Method: as §1
# Processing parameters included double reference subtraction, with human IgG4 used as an isotype control for reference sensor subtraction and immobilized ligand in kinetics buffer with no analyte used for reference sample subtraction. Y-axis data was aligned to the average baseline step for the last 5 seconds and all steps were inter-step corrected to the start of the dissociation step. High frequency noise was removed using Savitzky-Golay filtering and final fitting was a 1:1 global binding model to both association and dissociation.
# [19] = target: T4, Human VSIG4-L-CHO (human VSIG4 long …); experiment: flow cytometry, CHO-K1 cells expressing hVSIG4-L
# Method: Three-fold serial dilution of each antibody starting at 200 nM were prepared in assay buffer (0.5% of heat inactivated Fetal bovine serum with 1:1000 Ethylenediaminetetraacetic acid in PBS). […] As a control for specificity, an irrelevant antibody was used. Binding detection was assessed using a goat anti-Human IgG (Fc specific), FITC conjugated polyclonal detection antibody (Sigma Aldrich, St. Louis, MO) and by acquisition of 10,000 cells per sample. Fluorescence was measured on an Attune™ NxT (Thermo Fisher Scientific, Waltham, MA).
# [20] = target: T6, Human VSIG4-L-Fc; experiment: BLI binning on hVSIG4-L-Fc, competitor 12A08 first;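 also: normalized to binding of second antibody without first competitor antibody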
# Method: (§4) Epitopic diversity of functional antibodies was further assessed by antibody cross-blocking experiments, performed on a ForteBio Octet® Red384 system. […] All assay steps occurred at 30° C. with an acquisition rate of 5.0 Hz.
# (§5) Binning results were calculated using ForteBio Data Analysis HT software. Antibody “a” and antibody “b” steps were defined, and the maximum binding calculation was averaged at the last 10% of the step duration. Once the matrix was generated, the antibody “b” binding signal in the absence of any antibody “a” was used to normalize the maximum binding of the competitor antibodies. Hierarchical clustering was set with a similarity metric of Pearson and Lingang Criteria by Mean, and the normalized maximum binding nm shift is reported in Table 9 below.
# [21] = target: T6, Human VSIG4-L-Fc; experiment: BLI binning on hVSIG4-L-Fc, competitor 12A12 first;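 also: normalized to binding of second antibody without first competitor antibody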
# [22] = target: T6, Human VSIG4-L-Fc; experiment: BLI binning on hVSIG4-L-Fc, competitor 13H11 first;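 also: normalized to binding of second antibody without first competitor antibody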
# Method: as §4, §5
# [23] = target: T6, Human VSIG4-L-Fc; experiment: BLI binning on hVSIG4-L-Fc, competitor 14C05 first;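 also: normalized to binding of second antibody without first competitor antibody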
# Method: as §4, §5
# [24] = target: T6, Human VSIG4-L-Fc; experiment: BLI binning on hVSIG4-L-Fc, competitor 14D12 first;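 also: normalized to binding of second antibody without first competitor antibody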
# [25] = target: T6, Human VSIG4-L-Fc; experiment: BLI binning on hVSIG4-L-Fc, competitor 15A06 first;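 also: normalized to binding of second antibody without first competitor antibody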
# Method: as §4, §5
# [26] = target: T6, Human VSIG4-L-Fc; experiment: BLI binning on hVSIG4-L-Fc, competitor 15C03 first;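 also: normalized to binding of second antibody without first competitor antibody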
# [27] = target: T6, Human VSIG4-L-Fc; experiment: BLI binning on hVSIG4-L-Fc, competitor 15C04 first;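 also: normalized to binding of second antibody without first competitor antibody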
# [28] = target: T6, Human VSIG4-L-Fc; experiment: BLI binning on hVSIG4-L-Fc, competitor 16E03 first;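 also: normalized to binding of second antibody without first competitor antibody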
# Method: as §4, §5
# [29] = target: T6, Human VSIG4-L-Fc; experiment: BLI binning on hVSIG4-L-Fc, competitor 16E10 first;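 also: normalized to binding of second antibody without first competitor antibody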
# Method: as §4, §5
# [30] = target: T2, Cynomolgus Monkey VSIG4-L-His; experiment: ELISA, IgG 50 nM on coated antigen; ELISA, bivalent IgG on plate-coated cyVSIG4-L (avid format)
# Method: as §3
# T7 sequence (chain, as listed by the source limits assumed): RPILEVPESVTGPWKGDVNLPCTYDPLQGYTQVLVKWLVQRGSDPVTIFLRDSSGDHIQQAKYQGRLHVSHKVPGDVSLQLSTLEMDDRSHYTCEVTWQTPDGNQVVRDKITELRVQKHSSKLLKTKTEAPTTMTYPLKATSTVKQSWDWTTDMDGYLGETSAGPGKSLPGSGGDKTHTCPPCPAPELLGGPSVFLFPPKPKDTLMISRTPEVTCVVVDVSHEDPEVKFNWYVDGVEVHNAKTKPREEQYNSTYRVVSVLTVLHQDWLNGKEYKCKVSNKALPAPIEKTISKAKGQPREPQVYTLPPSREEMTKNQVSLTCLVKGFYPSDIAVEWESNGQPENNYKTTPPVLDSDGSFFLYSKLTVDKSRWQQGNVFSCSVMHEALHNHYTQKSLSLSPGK
binder,measurement,setting,value
B1,Kd,[1],2.5 nM
same,Kd,[2],1.3 nM
same,binding result,[3],no binding (tested: 50 nM)
same,EC50,[4],5.2 nM
same,binding signal (nm shift),[5],0.1 nm
same,binding signal (nm shift),[6],0.11 nm
same,binding signal (nm shift),[7],0.11 nm
same,IC50,[8],1.1 nM
same,IC50,[9],1 nM
same,Binding (200 nM) MFI,[10],38100 MFI
same,% Block C3b (200 nM mAb),[11],96%
same,% Block iC3b (200 nM mAb),[12],98%
same,Binding (200 nM) Fold-Over-Parental,[13],130 fold
B2,Kd,[1],15 nM
same,Kd,[2],14.3 nM
same,binding result,[14],no binding (tested: 100 nM)
same,ELISA OD450,[15],4.38 OD450
same,ELISA OD450,[16],0.24 OD450
same,ELISA OD450,[17],0.067 OD450
same,Kd,[18],28.5 nM
same,EC50,[19],2.4 nM
same,normalized maximum binding nm shift,[20],0.88 normalized
same,normalized maximum binding nm shift,[21],0.91 normalized
same,normalized maximum binding nm shift,[22],0.53 normalized
same,normalized maximum binding nm shift,[23],0.8 normalized
same,normalized maximum binding nm shift,[24],0.79 normalized
same,normalized maximum binding nm shift,[25],0.12 normalized
same,normalized maximum binding nm shift,[26],0.79 normalized
same,normalized maximum binding nm shift,[27],0.15 normalized
same,normalized maximum binding nm shift,[28],0.73 normalized
same,normalized maximum binding nm shift,[29],0.95 normalized
same,Binding (200 nM) MFI,[10],23900 MFI
same,% Block C3b (200 nM mAb),[11],-24%
same,% Block iC3b (200 nM mAb),[12],2%
same,Binding (200 nM) Fold-Over-Parental,[13],63 fold
same,ELISA OD450,[30],4.35 OD450
